# Assay: label from the status in PepcDB records
row,Sequence,protein production
1,MERKLGISLYPEHSTKEKDMAYISAAARHGFSRIFTCLLSVNRPKEEIVAEFKEIINHAKDNNMEVILDVAPAVFDQLGISYSDLSFFAELGADGIRLDVGFDGLTEAKMTNNPYGLKIELNVSNDIAYLENILSHQANKSALIGCHNFYPQKFTGLPYDYFIRCSERFKKHGIRSAAFITSHVANIGPWDINDGLCTLEEHRNLPIEVQAKHLWATGLIDDVIIGNAYASEEELEKLGNLNRYMLQLKVHFVDEATEVEKRATLQELHVRRGDITEYMVRSTEVRKKYKDYDFPVRESVLQERGQVVIGNNSFGKYKGELQIILKEMPIDERKNIVGTIAEEELFLLDYVGAWTQFTCVE,not failed
2,MERKNNQRSDEDEERKEQSEEERVERKEEAPRKRQKQDDVSTGKETLSKKRKIIDNDGDNVPTRSNKQSRVDDADNVDGPPVGDNDDHPTAQRKSKRGTIPSIHTQPPFTAEKKKHPILYPFAKVDASRVEKLAEGKKSRKCK,failed
3,MERLKLYFSYFKNKILKKYESKKAQSVIDTEEIKEEIWEADFSKKEKARFIEETGDGYQSLFEENLDGKHSYSLELKRKHLYAWALNPLFRYKDFVLDAEIELPVFTDNFFPEENTSAGYCAAGFVFRHISDKAFYSLLISDKGWIRLEAVVNSTPMPILGWTKPLTDIDSSKFKIKLICAGTSITVLVNNTWLGKFESDIVQAAGKIGFAGQNWETYPKVKFYLNEFKIISQPLLVENTDSAANNPDAISPEAYINLASTYYAMGQYVAAIYQIKQAWKLREPGIQDHILAGRIYFAQHLNEEAEKEFLHALDIEHDNYEIMAELAGLYYQSGNMKKLGDILKDIPNDEIEKSVLLCSLKGHFLNSQGKHEKSAAFYAKAFELKPDQGLLKYNEANELNLAGKTAEAVEAYTEAGKLFLASEEYNEMANVINALERIAPEDERTWALSGKFYYAVDNKWEAKLNFKKLCDAKTSDSTIWYLYGLLIHDEKPEEAVKFFKKACKLGPEHGLYHFRLAEALYLIGEDCSVPLSEAEALEPNNGWIFNLKALCAIDEDAFFDAQIEIEKARKMLPDEIVILENYVEIMRLQGRLKECAPLFDIEAGTADLAAERNRAEAFHIYANALFFDEQYDEADIWYQKALKLKPVDPVLLTDKAENSIKIGYLNDADGLLVKAMDIEPTERIYRLISLLAVKKGDHARAEVSLRQAIEEFGESEELLFDLTNLYIQTNRKEKAKETIKLLTNCEDQERLKELKALLKK,failed
4,MERNSWAEQWDSNQQSSGKTTHGGEGGGASSKYKEKVGAGLGKTKAAASSGLKKVKIGTSLGLNWVKDKYNKTTTKN,failed
5,MERRLCAILAADMAGYSRLMERNETDVLNRQKLYRRELIDPAIAQAGGQIVKTTGDGMLARFDTAQAALRCALEIQQAMQQREEDTPRKERIQYRIGINIGDIVLEDGDIFGDAVNVAARLEAISEPGAICVSDIVHQITQDRVSEPFTDLGLQKVKNITRPIRVWQWVPDADRDQSHDPQPSHVQH,not failed
6,MERSAFMELDAGSRLVMHLREWPALLVSSTGWTEFEQLTLDGHNLPSLVCVITGSVDLGVCLHMSSSGLDLPMKVVDMFGCCLPVCAVNFKCLHELVKHEENGLVFEDSEELAALQMLFSNFPDPAGKLNQFWKDLRESQQLRWDESWVQTVLPLVMDIQLLGQRLKPRDPCCPSRSFFSESQGKPF,failed
7,MESGHRFDAQTLHSFIQAVFRQMGSEEQEAKLVADHLIAANLAGHDSHGIGMIPSYVRSWSQGHLQINHHAKTVKEAGAAVTLDGDRAFGQVAAHEAMALGIEKAHQHGIAAVALHNSHHIGRIGYWAEQCAAAGFVSIHFVSVVGIPMVAPFHGRDSRFGTNPFCVVFPRKDNFPLLLDYATSAIAFGKTRVAWHKGVPVPPGCLIDVNGVPTTNPAVMQESPLGSLLTFAEHKGYALAAMCEILGGALSGGKTTHQETLQTSPDAILNCMTTIIINPELFGAPDCNAQTEAFAEWVKASPHDDDKPILLPGEWEVNTRRERQKQGIPLDAGSWQAICDAARQIGMPEETLQAFCQQLAS,not failed
8,MESIQSSLKHMTGNRSFEKQFTQLKEAVFRSPHVQLFLEEHPSLSPITLEQGLSKLYEYQKEQSHCAHCPGLQKCPNLMKGYQPTLYVERDSLELSYSPCPLKEEEEREKKKRSLIRSLYIPKEILEAKFDDVESEPGRSIASHRALEFALSAKPGEDGMGLYLYGKFGVGKTFLMGAIANELKDRGIDSTIVYVPDFFRELKQSIGDGTFQQKLDFVKNAQVLIFDDIGAETMTSWVRDDVLGVILQYRIMEKLPTLFTSNYDYDELEEHLAYNDKSGTELLKAKRVMERIRHYTVSVMVQGQNRREHQSLEHHHHHH,not failed
9,MESLPFVAAQPTIVPQLQQQVTGLTSSLNSQEKKELTHKLESIFNNTQVQIAVLIVSTTKDETIEQYATRVFDNWRLGDAKRNDGILIVVAWSDRTVRIQVGYGLEEKVTDALAGDIIRSNMIPAFKQQKLAKGLELAIIALNNQLTSQHQYPANPSESESTSSTDHYYFAIFWVFAVMFFPFWFFHQGSNFCRACKSGVCISAIHLLDLFLFSDKTFSIAVFSFFFTFTIFMVFTCLCVLQKRASGRSYHSDNSGSAGGSSGGASGRWLEHHHHHH,failed
10,MESLRSERNQYRILVDITNSVLAHLDMDGLISEVSKEIHRFFGLNHISLMLCRTSSQNSHEGILYSSRYQTGKSVIRQQRKFSSANNKAEEIIHQNKPVLIDINKEDQDDVLIKRLVKQNMQTALLLPLAFNRKPLGLLILAHEISSVFTEETCQLLQQIAARIGIAIENAAAYEEITHLKDS,not failed
11,MESLTQYIPDEFSMLRFGKKFAEILLKLHTEKAIMVYLNGDLGAGKTTLTRGMLQGIGHQGNVKSPTYTLVEEYNIAGKMIYHFDLYRLADPEELEFMGIRDYFNTDSICLIEWSEKGQGILPEADILVNIDYYDDARNIELIAQTNLGKNIISAFSN,not failed
12,MESMVAPGEVLMSQAIQPAHADSRGELSAGQLLKWMDTTACLAAEKHAGISCVTASMDDILFEDTARIGQIITIRAKVTRAFSTSMEISIKVIVQDKFTGIQKLLCVAFSTFVAKPVGKEKVHLKPVLLQTEQEQVEHNLASERRKVRLQHENTFNNIMKESSRFSDSICNEEEGTATTMGTSVQSIELVLPPHANHHGNTFGGQIMAWMETVATISASRLCHGHPFLKSVDMFKFRGPSTVGDRLVFSAIVNNTFQNSVEVGVRVEAFDCQEWAEGQGRHINSAFLIYNAVDDQEKLITFPRIQPISKDDFRRYQGAIARRRIRLGRKYVISHKKEVPLSAQWDISKKGSLSNTNVEALKNLASKSGWEITTTLEKIKIYTLEEQDAISVKVEKLVGSPAHIAYHLLSDLTKRPLWDPHYISCEVIDQVSEDDQIYYITCSVVNGDKPKDFVVLVSRRKPLKDNNTYTVALRSVVLPSVPSSPQYIRSEVICAGFLIQAVDSNSCTVTYLNQMSDSILPYFAGNIGGWSKSIEEAAASCIKFIENATPDGLKSVL,failed
13,MESPPMFNSVEDECRYWKERSKQYHKEWTDVKQEYDEFVEQSREMEIEMDATLDQKQSIIKDLTAKLTMFERENESLKLKLESHGIDMSNMEKQLETVKKDRDTMKVYLRQLEQKNDDLERAHRILNESIENFEKMLDQAYEKNALLELEVDEKGLLQEKLQRLMDETRDLKQELNVKSRFTPVVNGTSVPTANDTNTVNSSMNSSASLPNGIVANGELVKHDNAVATRATSVSVNALNGSLVNRNEYNQQHSLKSDGDETEDVPREWSANAAATPLLPAIHTSGAGRTALLLAGCRVVWILQFSVIHKPQIRNPIT,failed
14,MESSPSGSEPPQKVVSKLQKVGWRATMIFNLGFAAYIFAIKREKDIDADEKKKVKKGSEARHKGVKKGAVNTEIEKKGAEETDKAKEAETAIPEKEETKLIPELDPLFEFTDATDQSMFQTVATEHVKVARKPIPEDEQKELFKWILEEKRKIEPKDRKEKKQIDEEKAILKQFIRAERIPKLLPDDSVDSSLRDWDKFFSK,failed
15,MESTLSQLLPEALATRRRALAQMITGLHLAEHVHLSKVAGRIAGTAQLESKTRHLRRFLGNENVDPERFYSPVRDRLIEWAAQGAETQGSGPIRLLVDTVELSGERQVLMAGIAYRRRALPICWETYRREGVTNAEQQISLLKALVGRFPDEAEVVVVGDGAFHSTDLMDFIEDQGWHFCLRLHADTYIRSFKDSSKGFPKEGTWKQLRDLVPEEGERRYLQDVIVTKDNEYGPVGLALCQAEDEDDP,failed
16,MESVSCSAAAVRTGDMESQRDLSLVPERLQRREQERQLEVERRKQKRQNQEVEKENSHFFVATFARERAAVEELLERAESVERLEEAASRLQGLQKLINDSVFFLAAYDLRQGQEALARLQAALAERRRGLQPKKRFAFKTRGKDAASSTKVDAAPGIPPAVESIQDSPLPKKAEGDLGPSWVCGFSNLESQVLEKRASELHQRDVLLTELSNCTVRLYGNPNTLRLTKAHSCKLLCGPVSTSVFLEDCSDCVLAVACQQLRIHSTKDTRIFLQVTSRAIVEDCSGIQFAPYTWSYPEIDKDFESSGLDRSKNNWNDVDDFNWLARDMASPNWSILPEEERNIQWD,not failed
17,METAKDGEQSPSEASPPTQAGPETISEPVPLEEEGQPLYHEETIDLGGDDFASEETEPTSEGSHNFGDKLNEHMMESVLISDSPNNSEGDVGDLGCLQDVGEPPRGATDHRLPDSTDKEVVDTLSNGSETDGDDTPRDISDMTPDSRASLKEDSTQEDVPAMPALENAGTEEVGPKDSLVPREEQTSEVSSSQSSSKDEPLPVCTIFSQATSTSSQPHLFLQDGFESQMVKSPSFSSTSETSAKTPPPMVQPSPSLSTFFGDTMSSNSLASDFFDSFTTSTFISVSNPNAGSPVPEKLASLTAPVGEKSPDSTSPSYSTRMDRSESGVSRAALDVPESPKPFSQIQAVFAGSDDPFATALSMSEMDRRNDAWLPSQATREVLMSVATQQYGTVFIDKENLTMPGLKFDNIQGDAVKDLMLRFLGEKAAAKRQVLNASSVEQSFVGLKQLISCRNWRAAVDLCGRLLTAHGQGYGKSGLPTNHTTDSLQLWFVRLALLVKLGLFQNAEMEFEPFGNLDQPDLYYEYYPHVYPGRRGSMVPFSMRILHAELQQYLGNPQESLDRLHRVKTVCSKILANLEQGLAEDGGLSSVTQESRQASVQLWRSRLGRVLYSMANCLLLMKDYVLAVNAYLTVIKYYPEQEPQLLSGIGRILLQIGDIKTAEKYFQDVEKVTQKLDGLQGKIMVLMNRAFLYLGQNNFAEAHKFFTEILRMDPTNAVANNNAAVCLLYLGKLKDSLRQLEAMVQQDPRHYLHESVLFNLTTMYELESSRSMQKKQSLLEAVASKEGDSFNTQCLKLA,failed
18,METEGSLSILHVDDDAELGALVELYLEREDSGLDCTVTTETNPETALSLIRSSETNFDCIVSDYDMPEMNGIDFLEAIRETHPELPVLLFSGEETGDVAAEIIQAGVTDYLKKSVGTDQYTSLIRRVEHAVDSDGSFETGNEVKLSGVGVIGTDERFERVGETYASYYGYESEELVGKHWSELHPSNEVQHIRTHVIPAVRSGGKWTGQSKGLRADETTFTESKMVTALEDGRMLIAVDEIDDSGLAE,failed
19,METGAGIGLYPLHRCKTIYLVRHAQGIHNVDGEKNYKAYMSHDYFDAELTQLGWKQVDSLRKHVHSSGLHKKIELVISSPLMRTLQTAVGVFGGEGYTDMSDVLPLMVANAGNSSRAAISSLNCPPVITEESCREHLGVHPCDQRRSISDYQFLFPAVDFSLIESEEDKLWKADVRETIEELAARGKKFLNWLWTRKEKEIAIVTHSGFLFHTLNALQNECHPDVKKEICGHFANCELRSMVIVDRSMLGSDSSVTDYPGKIPKGIDLPSDAVVDDNNIKVE,not failed
20,METKGTGMTVNTVDVSAGRAQQVLREGWAAQRAGALTTSWMLHGRPGVGKTEIVRQLAAEQGARFYDLRLTTIESQDLRGLPYYDHETKKTQWYRPEDLPDDPDRPSLLFLDELTAAPPHLHPAVYGLLLERRVGPHILPDNVFLVAAGNMVEDGAVAYEMGTALSDRLIHLQVRATASDWLESYAVPRTLHPAVLAFIRMRPDLLETTAEALDRGLMISTTPRSWDRVSRIMGAVQDRALRRIMVAGTVGEAVAAEFMLVADDIEASVSVERLLNAAPHERIMLYPESMHGLHALIYGLVGALGPTTAVPVIDVMAGIRTLDVHRSDASFARMPLAELCTHGFEMAIRRGLEQGLAEDFLGHPAYAAYASERQAMGLELEHHHHHH,failed
